Measurements published in paper PMC3995651.
Blank lines part the entries; values can stand above or below the substance they belong to.

Legend:
Test in all cases: cross-linking; BS3 (0.5 or 5 mM), 5 µM protein in solution without liposomes, 20 mM Hepes, 150 mM NaCl, pH 7.4; 30 min room temperature, then 2 min 37°C with BS3; SDS-PAGE, Coomassie; step: monomers to dimer
[1] = target: BIN1 N-BAR domain (1-254) D151N (human)
[2] = target: BIN1 N-BAR domain (1-254) K35N (human)
[3] = target: BIN1 N-BAR domain (1-254) R154Q (human)
[4] = target: BIN1 N-BAR domain (1-254), wild type (human)

stoichiometry N [1]: 2
Substance: BIN1 N-BAR domain (1-254) D151N (domain or fragment)

stoichiometry N [2]: 2
Substance: BIN1 N-BAR domain (1-254) K35N (domain or fragment)

stoichiometry N [3]: 2
Substance: BIN1 N-BAR domain (1-254) R154Q (domain or fragment)

stoichiometry N [4]: 2
Substance: BIN1 N-BAR domain (1-254), wild type (domain or fragment)
